Reference: publication PMC9317961, “Deafness-related protein PDZD7 forms complex with the C-terminal tail of FCHSD2” (Biochemical Journal, 2022)
Blank lines part the entries; values can stand above or below the binder they belong to.

Legend:
Trx-tagged PDZD7 PDZ3 = target: T1, Trx-tagged PDZD7 PDZ3 (mouse, UniProt E9Q9W7 842-946); assay: SEC-MALS; Superose 12 10/300 GL column, miniDAWN and Optilab detectors; ~300 μl of 50 μM protein loaded; Trx-tagged proteins alone and mixed; conditions: both partners purified
T1 construct: As used in SEC-MALS, thioredoxin tag kept; monomer by SEC-MALS; also called Trx-PDZD7 PDZ3; source: E. coli BL21 (DE3), purified (nickel-NTA, SEC)
T1 sequence (looked up): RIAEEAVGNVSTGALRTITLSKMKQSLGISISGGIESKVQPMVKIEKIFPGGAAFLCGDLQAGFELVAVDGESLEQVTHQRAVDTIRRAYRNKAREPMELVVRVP

[1] = target: T2, PDZD7 PDZ3 (a.a. 842-946) (mouse, UniProt E9Q9W7 842-946); assay: ITC; MicroCal iTC200, 25°C; ~500 μM protein in the syringe titrated into ~50 μM partner in the cell; one-site binding model; conditions: both partners purified
T2 construct: As used in ITC; also called WT PDZD7 PDZ3; source: E. coli BL21 (DE3), purified (nickel-NTA, SEC); not shown: Trx (from the vector pET.32M.3C)
T2 sequence (looked up): T1 sequence (looked up)

stoichiometry N (Trx-tagged PDZD7 PDZ3): 1
B1: Trx-tagged FCHSD2 tail (peptide, UniProt Q3USJ8 729-740, looked up)
chain: TEKMEDVEITLV
notes: FCHSD2, residues 729-740; As used in SEC-MALS, thioredoxin tag kept; monomer by SEC-MALS; also called Trx-FCHSD2 tail; source: E. coli BL21 (DE3), purified (nickel-NTA, SEC)

Kd [1]: ~1510 nM
B2: FCHSD2 tail (a.a. 729-740) (peptide, UniProt Q3USJ8 729-740, looked up)
chain: TEKMEDVEITLV
notes: As used in ITC; also called WT FCHSD2 tail; source: E. coli BL21 (DE3), purified (nickel-NTA, SEC)
